Measured values: the supplement of paper PMC10899765

Legend:
Conditions in all cases: 20 nM; 72 h
MCF10A [1] = assay: one-nucleolus phenotype percent effect (relative to siNT 0% and siNOL11 100%); higher = more cells with one nucleolus (ribosome biogenesis inhibition)
Experimental: (§1)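 After 72 h, cells were fixed and stained with Hoechst and anti-fibrillarin, and nucleoli per nucleus were counted with CellProfiler. Values are plate-adjusted percent effect for the one-nucleolus and 5+ nucleoli phenotypes, normalised to siNT (0%) and to the positive controls siNOL11 or siKIF11 (100%), as the mean of biological triplicates. Percent viability is the nuclei count relative to siNT.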

MCF10A [2] = assay: 5+ nucleoli phenotype percent effect (relative to siNT 0% and siKIF11 100%); higher = more cells with five or more nucleoli
Experimental: as §1

MCF10A [3] = assay: percent viability (nuclei count relative to siNT); higher = more viable cells
Experimental: as §1

| Sequence | one-nucleolus phenotype percent effect (MCF10A [1]) [%] | 5+ nucleoli phenotype percent effect (MCF10A [2]) [%] | percent viability (MCF10A [3]) [%] |
| --- | --- | --- | --- |
| UCAAUCACUUGGUAAUUGCUGU [hsa-miR-4705] | -19.5 | 38.7 | 53.1 |
| CCCAUCACCUUUCCGUCUCCCCU [hsa-miR-6884-3p] | -25.5 | 50.9 | 70.3 |
| GAAAGUAAUUGCUGUUUUUGCC [hsa-miR-548aq-5p] | -13.4 | 16.5 | 118 |
| CUCCCACUUCCAGAUCUUUCU [hsa-miR-3156-3p] | -4.85 | 12 | 34.1 |
| UAGAGUCUGGCUGAUAUGGUUU [hsa-miR-5007-5p] | 14 | -8 | 49.3 |
| UACCCUGUAGAUCCGAAUUUGUG [hsa-miR-10a-5p] | 19.4 | -19.7 | 39.9 |
| CACUGUGUCCUUUCUGCGUAG [hsa-miR-892a] | 31.9 | -27.3 | 57.7 |
| AGCGGGGAGGAAGUGGGCGCUGCUU [hsa-miR-4706] | -0.404 | -0.458 | 32.7 |
| CUGCCCUGGCCCGAGGGACCGA [hsa-miR-874] | 4.65 | -5.29 | 62.9 |
| UCAAGUAGUUUCAUGAUAAAGG [hsa-miR-5697] | -14.6 | 12.5 | 118 |
| UCCAGCUCGGUGGCAC [hsa-miR-4267] | -0.0012 | 11.3 | 34.5 |
| GGUAGUGAGUUAUCAGCUAC [hsa-miR-6073] | 2.63 | 18.3 | 71 |
| AAUCCUUGCUACCUGGGU [hsa-miR-500b] | -0.735 | 12.8 | 32.3 |
| AACUCGUGUUCAAAGCCUUUAG [hsa-miR-4636] | 8.89 | 12.8 | 53.6 |
| CUGGGAGGUGUGAUAUUGUGGU [hsa-miR-3689b-3p] | 33.2 | -12.6 | 11.3 |
| GGGCUGGGGCGCGGGGAGGU [hsa-miR-5787] | -30.8 | 60.6 | 150 |
| UUGUGGAUCUCAAGGAUGUGCU [hsa-miR-4752] | 43.7 | -34.7 | 31.5 |
| GAGGAAACUGAAGCUGAGAGGG [hsa-miR-4496] | -13.7 | 40.4 | 88.3 |
| ACAGGCGGCUGUAGCAAUGGGGG [hsa-miR-3937] | 31.6 | -33.4 | 33.1 |
| ACUGGAAUUGGAGUCAAAA [hsa-miR-6128] | -18.6 | 36.5 | 105 |
| CAGGGGGACUGGGGGUGAGC [hsa-miR-6794-5p] | 5.76 | 7.3 | 50.1 |
| UGGUUGACCAUAGAACAUGCGC [hsa-miR-380-5p] | 13.4 | -0.352 | 17.6 |
| GGAGGAACCUUGGAGCUUCGGC [hsa-miR-3928] | -14.5 | 45.7 | 50 |
| UUGAGAAUGAUGAAUCAUUAGG [hsa-miR-580] | -18.3 | 25.6 | 91.4 |

| Sequence | one-nucleolus phenotype percent effect (MCF10A [1]) [%] | 5+ nucleoli phenotype percent effect (MCF10A [2]) [%] | percent viability (MCF10A [3]) [%] |
| --- | --- | --- | --- |
| AACAACAAAAUCACUAGUCUUCCA [hsa-miR-3529-3p] | 14.9 | 0.722 | 44.1 |
| UGACUAACUCCCACUCUACAG [hsa-miR-6831-3p] | -28.1 | 16.8 | 41.8 |
| CUGUACAGGCCACUGCCUUGC [hsa-let-7g-3p] | -2.69 | -28.3 | 55.1 |
| AGACUGACGGCUGGAGGCCCAU [hsa-miR-4513] | -13.8 | 21.1 | 43.7 |
| GGGUGCGGGCCGGCGGGG [hsa-miR-4466] | -13.2 | 12.7 | 51.3 |
| UGUGUGUGUAGAGGAAGAAGGGA [hsa-miR-6867-5p] | 64.8 | -22.4 | 13.1 |
| UGCGGGGACAGGCCAGGGCAUC [hsa-miR-4749-5p] | 50.5 | -24.9 | 21.9 |
| GGGGAGCUGUGGAAGCAGUA [hsa-miR-920] | -6.81 | 23.5 | 53.2 |
| UAAAUUUCACCUUUCUGAGAAGA [hsa-miR-513c-3p] | 15.7 | -1.66 | 28.5 |
| UCUCUGGUCUUUCCUUGACAG [hsa-miR-6764-3p] | 0.623 | 17.2 | 27.5 |
| UCUCUGGAGGGAAGCACUUUCUG [hsa-miR-518c-5p] | 33.3 | -17.1 | 45.4 |
| GAAGUGCUUCGAUUUUGGGGUGU [hsa-miR-373-3p] | -22.2 | 47.5 | 65.4 |
| GCUGCACCGGAGACUGGGUAA [hsa-miR-3130-3p] | -5.32 | 26.7 | 65 |
| CCUGGAAACACUGAGGUUGUG [hsa-miR-875-3p] | -26.1 | 37.4 | 155 |
| AUUCUCUCUGGAUCCCAUGGAU [hsa-miR-4768-5p] | -12.2 | -2.49 | 22.6 |
| CAAAGACUGCAAUUACUUUUGCG [hsa-miR-548u] | -31.1 | 43.4 | 75.7 |
| AUGUCCCACCCCCACUCCUGU [hsa-miR-4433b-5p] | 55.5 | -37.3 | 28.3 |
| AGUUGCCUUUUUGUUCCCAUGC [hsa-miR-4423-5p] | -22.1 | -0.303 | 44.9 |
| ACAAAGUGCUUCCCUUUAGAGUGU [hsa-miR-520g] | -7.99 | 24.4 | 77.4 |
| GUGGGAUUUCUGAGUAGCAUC [hsa-miR-5089-5p] | 3.12 | -4.04 | 36.5 |
| AAAGGUAAUUGCAGUUUUUCCC [hsa-miR-570-5p] | -30.8 | 56.8 | 95.2 |
| GGAGGCCGGGGUGGGGCGGGGCGG [hsa-miR-6089] | -25.7 | 53 | 153 |
| UUUCCGGCUCGCGUGGGUGUGU [hsa-miR-1180] | 12.6 | -27.5 | 31.8 |
| CCCAGUGUUCAGACUACCUGUUC [hsa-miR-199a-5p] | 4.51 | -30.3 | 68.8 |
